In the test the target is TMD-mRFP-RelA (UniProt Q04206 1-551). As to the kind of experiment: co-translocation of a three-protein complex (RelA, IkB, p50) after 1 µM PMA, confocal microscopy, HEK293 cells.
TMD-mRFP-RelA, sequence (Q04206 other isoform, or with tags, fused parts or gaps limits assumed): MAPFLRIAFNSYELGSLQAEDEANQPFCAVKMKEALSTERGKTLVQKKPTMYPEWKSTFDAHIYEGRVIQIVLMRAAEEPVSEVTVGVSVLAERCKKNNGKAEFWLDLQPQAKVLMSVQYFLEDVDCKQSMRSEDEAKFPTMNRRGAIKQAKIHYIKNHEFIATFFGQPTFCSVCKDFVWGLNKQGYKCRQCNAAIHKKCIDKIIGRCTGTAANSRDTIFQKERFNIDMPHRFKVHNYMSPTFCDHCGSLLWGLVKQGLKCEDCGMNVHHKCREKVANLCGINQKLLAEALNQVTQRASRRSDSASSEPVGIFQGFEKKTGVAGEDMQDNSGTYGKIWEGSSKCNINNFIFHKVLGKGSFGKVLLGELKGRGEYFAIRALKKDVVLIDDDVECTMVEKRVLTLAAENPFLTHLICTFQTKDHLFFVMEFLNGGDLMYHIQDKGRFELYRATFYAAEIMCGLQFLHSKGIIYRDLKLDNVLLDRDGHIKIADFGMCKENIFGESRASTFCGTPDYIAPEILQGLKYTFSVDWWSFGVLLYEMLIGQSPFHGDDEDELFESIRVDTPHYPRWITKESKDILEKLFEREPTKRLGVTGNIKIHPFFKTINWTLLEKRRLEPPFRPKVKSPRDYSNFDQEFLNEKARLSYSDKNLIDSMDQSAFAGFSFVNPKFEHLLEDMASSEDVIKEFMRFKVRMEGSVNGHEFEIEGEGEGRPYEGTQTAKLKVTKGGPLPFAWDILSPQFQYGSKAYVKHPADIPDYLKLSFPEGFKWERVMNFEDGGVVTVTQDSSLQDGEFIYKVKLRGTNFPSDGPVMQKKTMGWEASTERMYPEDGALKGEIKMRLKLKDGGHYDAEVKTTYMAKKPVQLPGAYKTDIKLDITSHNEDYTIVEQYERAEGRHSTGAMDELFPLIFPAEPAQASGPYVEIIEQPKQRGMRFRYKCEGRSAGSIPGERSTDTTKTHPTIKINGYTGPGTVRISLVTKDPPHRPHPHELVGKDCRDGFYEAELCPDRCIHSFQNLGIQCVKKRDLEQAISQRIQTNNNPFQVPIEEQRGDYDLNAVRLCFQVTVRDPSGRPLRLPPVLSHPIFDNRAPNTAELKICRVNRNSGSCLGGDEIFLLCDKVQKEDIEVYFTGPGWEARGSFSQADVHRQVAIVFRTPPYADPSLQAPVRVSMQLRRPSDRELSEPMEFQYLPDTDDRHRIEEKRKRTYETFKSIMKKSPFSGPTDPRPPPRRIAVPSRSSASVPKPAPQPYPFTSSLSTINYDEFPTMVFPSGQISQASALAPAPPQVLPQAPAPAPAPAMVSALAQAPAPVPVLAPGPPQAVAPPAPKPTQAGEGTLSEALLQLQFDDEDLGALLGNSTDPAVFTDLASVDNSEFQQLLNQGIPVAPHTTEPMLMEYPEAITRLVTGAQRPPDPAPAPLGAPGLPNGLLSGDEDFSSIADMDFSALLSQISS

B1: HcR-p50 (other)
chain: MVSGLLKESMRIKMYMEGTVNGHYFKCEGEGDGNPFAGTQSMRIHVTEGAPLPFAFDILAPCCEYGSRTFVHHTAEIPDFFKQSFPEGFTWERTTTYEDGGILTAHQDTSLEGNCLIYKVKVHGTNFPADGPVMKNKSGGWEPSTEVVYPENGVLCGRNVMALKVGDRHLICHHYTSYRSKKAVRALTMPGFHFTDIRLQMLRKKKDEYFELYEASVARYSDLPEKANMAEDDPYLGRPEQMFHLDPSLTHTIFNPEVFQPQMALPTDGPYLQILEQPKQRGFRFRYVCEGPSHGGLPGASSEKNKKSYPQVKICNYVGPAKVIVQLVTNGKNIHLHAHSLVGKHCEDGICTVTAGPKDMVVGFANLGILHVTKKKVFETLEARMTEACIRGYNPGLLVHPDLAYLQAEGGGDRQLGDREKELIRQAALQQTKEMDLSVVRLMFTAFLPDSTGSFTRRLEPVVSDAIYDSKAPNASNLKIVRMDRTAGCVTGGEEIYLLCDKVQKDDIQIRFYEEEENGGVWEGFGDFSPTDVHRQFAIVFKTPKYKDINITKPASVFVQLRRKSDLETSEPKPFLYYPEIKDKEEVQRKRQKLMPNFSDSFGGGSGAGAGGGGMFGSGGGGGGTGSTGPGYSFPHYGFPTYGGITFHPGTTKSNAGMKHG
notes: also called second construct 2
As to B1, the binding result is reported as “binds”.
